{"source": "paper PMC6176637", "about": "(Proceedings of the National Academy of Sciences of the …, 2018)", "proteins": {"B1": {"name": "full-length hemagglutinin (HA) from A/duck/Alberta/35/76(H1N1) virus (natural protein)", "chain 1": "not shown", "chain 2": "not shown"}}, "biological_target": "the molecule itself", "assay": "cryo-EM structure", "data": [{"protein": "B1", "values": [{"measurement": "stoichiometry N", "value": 3}]}]}
